Laboratory results: FireProtDB (doi:10.1016/0003-9861(92)90047-z)

Settings: Escherichia coli (strain K12); pH 7.2; Thermal; DSC; Sodium phosphate 1 mM; reversible: yes; whole UniProt chain shown

B1: Tryptophan synthase alpha chain wild type, P0A877 (protein)
chain: MERYESLFAQLKERKEGAFVPFVTLGDPGIEQSLKIIDTLIEAGADALELGIPFSDPLADGPTIQNATLRAFAAGVTPAQCFEMLALIRQKHPTIPIGLLMYANLVFNKGIDEFYAQCEKVGVDSVLVADVPVEESAPFRQAALRHNVAPIFICPPNADDDLLRQIASYGRGYTYLLSRAGVTGAENRAALPLNHLVAKLKEYNAAPPLQGFGISAPDQVKAAIDAGAAGAISGSAIVKIIEQHINEPEKMLAALKVFVQPMKAATRS
Tm: 59.5 °C
